B1: Hairpin Ribozyme (parent)
chain: GUCCUCUUUCACGUGCGCGUGAAAGAGAGAAGUGAACCAGAGAAACACACGUUGUGGUAUAUUACCUGGUA

76 variants from the RNAGym collection of RNA variant scans (doi:10.7554/elife.80360) can be followed below.

This data set covers variants of B1. The experiment in a line: self-cleavage, relative activity (ratio to wild type); higher = more cleavage; co-transcriptional.
Take AUCCUCUUUCACGUGCGCGUGAAAGUGAGAAGUGAACCAGAGAAACACACGUUGUGGUAUAUUACCUGGUA: the self-cleavage was 0.11.

For the variant AUCCUCUUUCACGUGCGCGUGAAAGGGAGAAGUGAACCAGAGAAACACACGUUGUGGUAUAUUACCUGGUA, the self-cleavage came out at 0.149.

As for AUCCUCUUUCACGUGCGCGUGAAAGAGAGAAGUGAACCAGAGAAACACACGUUGUGGUAUAUUAGCUGGUA, the self-cleavage was determined as 0.0867.

For the variant AUCCUCUUUCACGUGCGCGUGAAAGAGAGAAGUGAACCAGAGAAACACACGUUGUGGUAUAUUAACUGGUA, the self-cleavage amounted to 0.285.

As to AUCCUCUUUCACGUGCGCGUGAAAGAGAGAAGUGAACCAGAGAAACACACGUUGUGGUAUAUUAUCUGGUA, the self-cleavage was found to be 0.0307.

AUCCUCUUUCACGUGCGCGUGAAAGAGAGAAGUGAACCAGAGAAACACACGUUGUGGUAUAUUACCUUGUA: the self-cleavage came out at 0.176.

For the variant AUCCUCUUUCACGUGCGCGUGAAAGAGAGAAGUGAACCAGAGAAACACACGUUGUGGUAUAUUACCUAGUA, the self-cleavage was 0.21.

With AUCCUCUUCCACGUGCGCGUGAAAGAGAGAAGUGAACCAGAGAAACACACGUUGUGGUAUAUUACCUGGUA, the self-cleavage turned out to be 0.167.

As for AUCCUCUUGCACGUGCGCGUGAAAGAGAGAAGUGAACCAGAGAAACACACGUUGUGGUAUAUUACCUGGUA, the self-cleavage worked out at 0.293.

In the case of AUCCUCUUACACGUGCGCGUGAAAGAGAGAAGUGAACCAGAGAAACACACGUUGUGGUAUAUUACCUGGUA, the self-cleavage came to 0.198.

With AUCCUCUUUCACGUGCGCGUGAAAGAGAGAAGUGAACCCGAGAAACACACGUUGUGGUAUAUUACCUGGUA, the self-cleavage came out at 0.138.

For AUCCUCUUUCACGUGCGCGUGAAAGAGAGAAGUGAACCGGAGAAACACACGUUGUGGUAUAUUACCUGGUA, the self-cleavage came to 0.152.

In the case of AUCCUCUUUCACGUGCUCGUGAAAGAGAGAAGUGAACCAGAGAAACACACGUUGUGGUAUAUUACCUGGUA, the self-cleavage was found to be 0.127.

In the case of AUCCUCUUUCACGUGCACGUGAAAGAGAGAAGUGAACCAGAGAAACACACGUUGUGGUAUAUUACCUGGUA, the self-cleavage came to 0.0844.

AUCCUCUUUCACGUGCGCGUGAAAGAGAGAAGUGAACCAGAGGAACACACGUUGUGGUAUAUUACCUGGUA: the self-cleavage turned out to be 0.2.

AUCCUCUUUCACGUGCGCGUGAAAGAGAGAAGUGAACCAGAGUAACACACGUUGUGGUAUAUUACCUGGUA: the self-cleavage came to 0.0738.

For the variant AUCCUCUUUCACGUGCGCGUGAAAGAGAGAAGUGAAGCAGAGAAACACACGUUGUGGUAUAUUACCUGGUA, the self-cleavage was found to be 0.187.

For AUCCUGUUUCACGUGCGCGUGAAAGAGAGAAGUGAACCAGAGAAACACACGUUGUGGUAUAUUACCUGGUA, the self-cleavage turned out to be 0.193.

As to AUCCUUUUUCACGUGCGCGUGAAAGAGAGAAGUGAACCAGAGAAACACACGUUGUGGUAUAUUACCUGGUA, the self-cleavage turned out to be 0.195.

For AUCCUCUUUCACGUGCGCGUGAAAGAGAGAAGUGAACCAGAGAAACACACGAUGUGGUAUAUUACCUGGUA, the self-cleavage stood at 0.155.

Consider AUCCUCUUUCACGUGCGCGUGAAAGAGAGAAGUGAACCAGAGAAACACACGUUGUGGUAUAUUACCUGGUG, for which the self-cleavage came to 0.205.

Take AUCCUCUUUCACGUGCGCGUGAAAGAGAGAAGUGAACCAGAGAAACACACGUUGUGGUAUAUUGCCUGGUA: the self-cleavage worked out at 0.187.

With AUCCUCUUUCACGUGCGCGUGAAAGAGAGAAGUGAACCAGAGAAACACACGUUGUGGUAUAUUUCCUGGUA, the self-cleavage came to 0.272.

Consider AUCCUCUUUCACUUGCGCGUGAAAGAGAGAAGUGAACCAGAGAAACACACGUUGUGGUAUAUUACCUGGUA, for which the self-cleavage amounted to 0.208.

As for AUCCUCUUUCACCUGCGCGUGAAAGAGAGAAGUGAACCAGAGAAACACACGUUGUGGUAUAUUACCUGGUA, the self-cleavage was 0.119.

Take AUCCUCGUUCACGUGCGCGUGAAAGAGAGAAGUGAACCAGAGAAACACACGUUGUGGUAUAUUACCUGGUA: the self-cleavage turned out to be 0.148.

In the case of AUCCUCUUUCACGUGCGCGUGAAAGAGAGAAGUGAACCAGAGAAACACACGUUUUGGUAUAUUACCUGGUA, the self-cleavage came to 0.153.

Regarding AUCCUCUUUCACGUGCGCGUGAAAGAGAGAAGUGAACCAGAGAAACACACGUUAUGGUAUAUUACCUGGUA, the self-cleavage came to 0.191.

AUCCUCUUUCACGUGCGCGUGAAAGAGAGAACUGAACCAGAGAAACACACGUUGUGGUAUAUUACCUGGUA: the self-cleavage was determined as 0.318.

AUCCUCUUUCACGUGCGCGUGCAAGAGAGAAGUGAACCAGAGAAACACACGUUGUGGUAUAUUACCUGGUA: the self-cleavage was 0.11.

Turning to AUCCUCUUUCACGUGCGCGUGUAAGAGAGAAGUGAACCAGAGAAACACACGUUGUGGUAUAUUACCUGGUA, the self-cleavage came out at 0.109.

For the variant AUCCUCUUUCACGUGCGCGUGAAAGAGAGAAGUGAACCAGAGAAACCCACGUUGUGGUAUAUUACCUGGUA, the self-cleavage was 0.124.

AUCCUCUUUCACGUGCGCGUGAAAGAGAGAAGUGAACCAGAGAAACGCACGUUGUGGUAUAUUACCUGGUA: the self-cleavage amounted to 0.123.

For the variant AUCCUCUUUCACGUGCGCGUGAAAGAGAGAAGUAAACCAGAGAAACACACGUUGUGGUAUAUUACCUGGUA, the self-cleavage was found to be 0.18.

On to AUCCUCUUUCACGUGCGCGUGAAAGAGAGAAGUGAGCCAGAGAAACACACGUUGUGGUAUAUUACCUGGUA, for which the self-cleavage was found to be 0.088.

For the variant AUCCUCUUUCACGUGUGCGUGAAAGAGAGAAGUGAACCAGAGAAACACACGUUGUGGUAUAUUACCUGGUA, the self-cleavage was 0.217.

AUCCUCUUUCACGUGCGCGUGAAAGAGAGAAGAGAACCAGAGAAACACACGUUGUGGUAUAUUACCUGGUA: the self-cleavage worked out at 0.175.

As for AUCCUCUUUCACGUGCGCGUGAAAGAGAGAAGCGAACCAGAGAAACACACGUUGUGGUAUAUUACCUGGUA, the self-cleavage stood at 0.0709.

On to AUCCUCUUUCACGUGCGCGUGAAAGAGAGAAGUGAACCAGAGAAACACACGUUGUAGUAUAUUACCUGGUA, for which the self-cleavage stood at 0.181.

On to AUCCUCUUUCACGUGCGCGCGAAAGAGAGAAGUGAACCAGAGAAACACACGUUGUGGUAUAUUACCUGGUA, for which the self-cleavage is 0.188.

With AUCCUCUUUCACGUGCGCGGGAAAGAGAGAAGUGAACCAGAGAAACACACGUUGUGGUAUAUUACCUGGUA, the self-cleavage worked out at 0.188.

AUCCUCUUUCACGUGCGAGUGAAAGAGAGAAGUGAACCAGAGAAACACACGUUGUGGUAUAUUACCUGGUA: the self-cleavage amounted to 0.185.

On to AUCCUCUUUCACGUGCGGGUGAAAGAGAGAAGUGAACCAGAGAAACACACGUUGUGGUAUAUUACCUGGUA, for which the self-cleavage was found to be 0.0949.

Turning to AUCCUCUUUCACGUGCGCGUGAAAGAGAGAAGUGAACCAAAGAAACACACGUUGUGGUAUAUUACCUGGUA, the self-cleavage was found to be 0.199.

As for AUCCUCUUUCACGUGCGCGUGAAAGAGAGAAGUGAACCAUAGAAACACACGUUGUGGUAUAUUACCUGGUA, the self-cleavage is 0.123.

Turning to AUCCUCUUUCACGUGCGCGUGAAAGAGAGAAGUGAACCACAGAAACACACGUUGUGGUAUAUUACCUGGUA, the self-cleavage was determined as 0.167.

On to AUCCUCUGUCACGUGCGCGUGAAAGAGAGAAGUGAACCAGAGAAACACACGUUGUGGUAUAUUACCUGGUA, for which the self-cleavage came to 0.158.

Turning to AUCCUCUUUCACGUGCGCGUGAAAGAGAGAAGUGAACCAGAGACACACACGUUGUGGUAUAUUACCUGGUA, the self-cleavage was 0.2.

As for AUCCUCUUUCACGUGCGCGUGAAAGAGAGAAGUGAACCAGAGAGACACACGUUGUGGUAUAUUACCUGGUA, the self-cleavage worked out at 0.167.

For AUCCUCUUUCACGUGCGCGUGAAAGAGAGAGGUGAACCAGAGAAACACACGUUGUGGUAUAUUACCUGGUA, the self-cleavage is 0.136.

Regarding AUCCUCUUUCACGUGCGCGUGAAAGAGAGAAGUGAACCAGAGAAAAACACGUUGUGGUAUAUUACCUGGUA, the self-cleavage is 0.134.

As for AUCUUCUUUCACGUGCGCGUGAAAGAGAGAAGUGAACCAGAGAAACACACGUUGUGGUAUAUUACCUGGUA, the self-cleavage was determined as 0.241.

Take AUCCUCUUUCACGUGCGCGUGAAAGAGAGAAGUGAACCAGACAAACACACGUUGUGGUAUAUUACCUGGUA: the self-cleavage worked out at 0.213.

Take AUCCUCUUUCACGUGCGCGUGAAAGAGAGAAGUGAACCAGAGAAACAUACGUUGUGGUAUAUUACCUGGUA: the self-cleavage was determined as 0.0691.

In the case of AUCCUCUUUCACGUGCGCGUGAAAGAGAGAAGUGAACCAGAGAAACAAACGUUGUGGUAUAUUACCUGGUA, the self-cleavage was determined as 0.156.

On to AUCCUCUUUCACGUGCGCGUGAAAGAGAGAAGUGAACCAGAGAAACACACCUUGUGGUAUAUUACCUGGUA, for which the self-cleavage was found to be 0.0527.

With AUCCUCUUUCUCGUGCGCGUGAAAGAGAGAAGUGAACCAGAGAAACACACGUUGUGGUAUAUUACCUGGUA, the self-cleavage turned out to be 0.302.

With AUCCACUUUCACGUGCGCGUGAAAGAGAGAAGUGAACCAGAGAAACACACGUUGUGGUAUAUUACCUGGUA, the self-cleavage was determined as 0.152.

Consider AUCCUCUUUCACGUGCGCGUGAAAGAGAGAAGUGAACCAGAGAAACACACGUUGUGCUAUAUUACCUGGUA, for which the self-cleavage was determined as 0.163.

Turning to AUCCUCUUUCACGUGCGCGUGAAAGAGAGAAGUGAACUAGAGAAACACACGUUGUGGUAUAUUACCUGGUA, the self-cleavage was 0.115.

In the case of AUCCUCUUUUACGUGCGCGUGAAAGAGAGAAGUGAACCAGAGAAACACACGUUGUGGUAUAUUACCUGGUA, the self-cleavage came to 0.235.

For AUCCUCUUUCACGUGCGCGUGAAAGAGAGGAGUGAACCAGAGAAACACACGUUGUGGUAUAUUACCUGGUA, the self-cleavage came to 0.231.

In the case of AUCCUCUUUCACGUGCGCGUGAAAGAGAGCAGUGAACCAGAGAAACACACGUUGUGGUAUAUUACCUGGUA, the self-cleavage worked out at 0.291.

Consider AUCCUCUUUCACGUGCGCGUAAAAGAGAGAAGUGAACCAGAGAAACACACGUUGUGGUAUAUUACCUGGUA, for which the self-cleavage came to 0.154.

For the variant AUCCUCUUUCACGUGCGCGUUAAAGAGAGAAGUGAACCAGAGAAACACACGUUGUGGUAUAUUACCUGGUA, the self-cleavage was 0.127.

Regarding AUCCUCUUUCACGAGCGCGUGAAAGAGAGAAGUGAACCAGAGAAACACACGUUGUGGUAUAUUACCUGGUA, the self-cleavage was 0.127.

For the variant AUCCUCUUUCACGUGCGCGUGAAAGAGAGAAGUGAACCAGAGAAACACACGUUGAGGUAUAUUACCUGGUA, the self-cleavage worked out at 0.229.

As for AUCCUCUUUCACGUGCGCGUGAAAGAGAGAAGUGAACCAGAGAACCACACGUUGUGGUAUAUUACCUGGUA, the self-cleavage came to 0.0307.

On to AUCCUCUUUCACGUGCGCGUGAAAGAGAGAAGUGAACCAGAGAAGCACACGUUGUGGUAUAUUACCUGGUA, for which the self-cleavage turned out to be 0.0977.

In the case of AUCCUCUUUCACGUGCGCGUGAAAGAGAGAAGUGAACCAGAGAAACACACGUUGUGGUCUAUUACCUGGUA, the self-cleavage turned out to be 0.22.

Consider AUCCUCUUUCACGUGCGCGUGAAAGAGAGAAGUGAACCAGAGAAACACACGUUGUGGUGUAUUACCUGGUA, for which the self-cleavage is 0.237.

Take AUCCUCUUUCACGUGCGCGUGAAAGAGAGAAGUGAACCAGUGAAACACACGUUGUGGUAUAUUACCUGGUA: the self-cleavage stood at 0.225.

On to AUCCUCUUUCACGUGCGCGUGAAAGAGAGAAGUGAACCAGAGAAACACUCGUUGUGGUAUAUUACCUGGUA, for which the self-cleavage is 0.061.

AUCCUCUUUCACGUGCGCGUGAAAGAGAGAAGUGAACCAGAGAAACACCCGUUGUGGUAUAUUACCUGGUA: the self-cleavage was 0.0908.

Consider ACCCUCUUUCACGUGCGCGUGAAAGAGAGAAGUGAACCAGAGAAACACACGUUGUGGUAUAUUACCUGGUA, for which the self-cleavage came out at 0.899.

Regarding AGCCUCUUUCACGUGCGCGUGAAAGAGAGAAGUGAACCAGAGAAACACACGUUGUGGUAUAUUACCUGGUA, the self-cleavage turned out to be 0.895.
